Among the data in the supplement of paper PMC10567573 are protein stability index values, retold here.

± gives the standard deviation.

A short description of the data set: protein stability index of a GFP-peptide fusion (GPS, HEK-293T) (PSI 1-6); higher = more stable. To be noted: c terminus: a fixed tail appended.
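Also: 24-mer peptide tiles fused after GFP, lentivirally expressed, FACS-sorted into six equal bins by GFP/DsRed ratio, decoded by Illumina sequencing, PSI is the read-weighted mean bin number.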

In the case of GMLAPAAGPAFDSDPEISDVDEDE [PPFIA4], the protein stability index (treatment: DMSO) was 5.35 ± 0.73 and the protein stability index (treatment: MLN4924 1 uM, 8 h) was found to be 5.54 ± 0.24.
Regarding GNGKNLVDFTFVENVVHGHILAAE [NSDHL], the protein stability index amounted to 3.08 ± 0.36 (treatment: DMSO) and 2.91 ± 0.51 (treatment: MLN4924 1 uM, 8 h).
As to GNLEVGEPQSEPVRVLDMVAKLES [FBXO34], the protein stability index amounted to 5.01 ± 0.34 (treatment: DMSO) and 4.87 ± 0.2 (treatment: MLN4924 1 uM, 8 h).
The corresponding values for GPAAFVDYFERNWEPRRDMWVRFR [ZSWIM9] are 2.4 ± 0.12 and 2.46 ± 0.37.
Take GPALAGEPAGSLRELGVWRSLLRL [C2CD2L]: the protein stability index stood at 2.66 ± 0.23 (treatment: DMSO) and 2.56 ± 0.03 (treatment: MLN4924 1 uM, 8 h).
The corresponding values for GPLGDCLRDWEDLQQDFQNIQETH [TMEM120A] are 4.63 ± 0.31 and 4.41 ± 0.32.
Turning to GPVRSSSGMGGRAPVSRGRDSYGG [RBMX], the protein stability index worked out at 4.32 ± 0.12 (treatment: DMSO) and 4.53 ± 0.17 (treatment: MLN4924 1 uM, 8 h).
For the sequence GPYEGGGPVAGLDDSGGPTPSSYA [ZBTB22], the protein stability index reads like this: (treatment: DMSO) 4.95 ± 0.24; (treatment: MLN4924 1 uM, 8 h) 4.97 ± 0.17.
The matching figures for GQTGTRLTPADKAEHMKRQRHPRL [AUP1]: 4.32 ± 0.18 and 4.6 ± 0.075.
Regarding GRGSLSSGGQTSWDSGCLAPPSTR [PLEKHN1], the protein stability index runs as follows: (treatment: DMSO) 4.44 ± 0.24; (treatment: MLN4924 1 uM, 8 h) 4.15 ± 0.35.
For the sequence GSDKQQQQQHIECVVCGDKSSGKH [NR2F2], the protein stability index was determined as 4.93 ± 0.35 (treatment: DMSO) and 5.07 ± 0.18 (treatment: MLN4924 1 uM, 8 h).
The corresponding values for GSLYVFGGTTGYIYSTDLHKLDLN [KLHDC10] are 2.4 ± 0.5 and 2.66 ± 0.46.
In turn, GSMKIKSSWDIDGRATKRRKKSGD [FBXO34] had a protein stability index (treatment: MLN4924 1 uM, 8 h) of 4.34 ± 0.81.
Take GSNPSSSNSSQDSLHKGAKRKGIK [PPFIA4]: the protein stability index was determined as 5.14 ± 0.69 (treatment: DMSO) and 5.53 ± 0.35 (treatment: MLN4924 1 uM, 8 h).
The corresponding values for GSSSFSLKGYPSLMRSQSPKAQPQ [TRIM29] are 3.76 ± 0.26 and 3.73 ± 0.28.
For GSVLRIQPLRTPRDEAIYECVASN [PTPRD], the protein stability index runs as follows: (treatment: DMSO) 3.24 ± 0.12; (treatment: MLN4924 1 uM, 8 h) 3.17 ± 0.43.
As to GTDQVCVLEWGAEGVAGKSGLEKE [FCHSD1], the protein stability index came to 5.01 ± 0.25 (treatment: DMSO) and 5.07 ± 0.15 (treatment: MLN4924 1 uM, 8 h).
Regarding GTEYTCKVYPVQEALAVLEPYARL [TRIB3], the protein stability index by setting is: (treatment: DMSO) 2.62 ± 0.23; (treatment: MLN4924 1 uM, 8 h) 2.48 ± 0.33.
GVGTSMEGASPLSERCQRQLQSLC [FANCE]: the protein stability index by setting is: (treatment: DMSO) 3.9 ± 0.16; (treatment: MLN4924 1 uM, 8 h) 3.78 ± 0.15.
Consider GVILHSLKTQSLEGKRKAFYTCAS [OR4A15], for which the protein stability index stood at 2.48 ± 0.27 (treatment: DMSO) and 2.19 ± 0.27 (treatment: MLN4924 1 uM, 8 h).
The matching figures for GYGGSRDSYSSSRSDLYSSGRDRV [RBMX]: 3.828 ± 0.029 and 3.99 ± 0.37.
As to HASSYISPEKEEQYIAQFTSQFLS [PRAME], the protein stability index turned out to be 3.06 ± 0.44 (treatment: DMSO) and 3.31 ± 0.27 (treatment: MLN4924 1 uM, 8 h).
The corresponding values for HDGSSYLNSVERYDPKTNQWSSDV [KLHL20] are 4.46 ± 0.25 and 4.27 ± 0.4.
HDSVVEMIRKGGDQTSLLVVDKET [PDZK1] came in with a protein stability index (treatment: MLN4924 1 uM, 8 h) of 4.76 ± 0.33.
Turning to HESFFSLFSDPRSTRLTRIHLRED [ZER1], the protein stability index reads like this: (treatment: DMSO) 3.04 ± 0.26; (treatment: MLN4924 1 uM, 8 h) 3.14 ± 0.11.
The matching figures for HFHRTLKEACDQHGPDLYPKFKKW [CPOX]: 2.49 ± 0.21 and 2.75 ± 0.14.
The corresponding values for HFQDNLHSVNRDLNELERLSNLVG [MED27] are 3.47 ± 0.19 and 3.52 ± 0.36.
The matching figures for HGEADRSTLKKALPTLSHIQEAQS [YJU2B]: 4.81 ± 0.3 and 4.7 ± 0.21.
As for HGFLFMIFQIGVLGFGPTYVVLAY [SOAT1], the protein stability index worked out at 2.86 ± 0.85 (treatment: DMSO) and 2.71 ± 0.8 (treatment: MLN4924 1 uM, 8 h).
The corresponding values for HGIRPPQLEQPEKMPVLKAEASHY [RHOBTB3] are 4.41 ± 0.11 and 4.41 ± 0.2.
The corresponding values for HGSQGTYSNTKENGINGELTSADR [MAP2] are 5.11 ± 0.24 and 5.17 ± 0.22.
Regarding HGVRAKVQPQARKKEMEMRQLQRG [CPN1], the protein stability index is, setting by setting: (treatment: DMSO) 4.38 ± 0.38; (treatment: MLN4924 1 uM, 8 h) 4.5 ± 0.25.
With HHRVQENQMDKARRHPQGAWKELD [CHGB], the protein stability index reads like this: (treatment: DMSO) 4.45 ± 0.11; (treatment: MLN4924 1 uM, 8 h) 4.4 ± 0.11.
The corresponding values for HIIRIGDLKPTGEIPKQVKVKKLK [DENND6A] are 2.73 ± 0.2 and 3.12 ± 0.19.
With HLESKDINQEELRALEEVEMKLQK [C10orf62], the protein stability index reads like this: (treatment: DMSO) 5.31 ± 0.32; (treatment: MLN4924 1 uM, 8 h) 5.34 ± 0.24.
HLKRHFMFRNHLCLVFELLSYNLY [DYRK1B]: the protein stability index runs as follows: (treatment: DMSO) 3.34 ± 0.23; (treatment: MLN4924 1 uM, 8 h) 3.29 ± 0.88.
With HLSPLVVHRQLSHLYAEPQKSPWC [ESR2], the protein stability index (treatment: DMSO) worked out at 2.51 ± 0.36 and the protein stability index (treatment: MLN4924 1 uM, 8 h) is 2.79 ± 0.36.
